{
  "source": "patent US7235522B2",
  "about": "“Use of microparticles having a protein and an antibody adsorbed thereon for preparing a pharmaceutical composition for intranasal administration” (priority 1997, dated 2007)",
  "origin": "cited, not measured here",
  "conditions": "in vivo",
  "data": [
    {"substance": "insulin [insulin (51 AA)]", "values": [
      {"measurement": "absorption of proteins administered by nasal route", "value": "almost zero"}
    ]}
  ]
}
